The target in this experiment is T1, hemagglutinin H3 (A/Victoria/361/2011), trypsin-cleaved HA1/HA2 trimer for crystallization (Influenza A virus A/Victoria/361/2011 …, UniProt A0A097PF39, strain, N-linked glycans (a group 2-specific sugar at position 38 of HA1)).
T1 construct: copies: 3 + 3
The experiment can be described thus: crystal structure. The note with it: both partners purified.

B1: 3I14 fragment antigen-binding region (Fab) (Fab, V domains shown)
VH: QVQLLESGGGVVQPGRSLRLSCAASGFTFSNYGMHWVRQAPGKGLEWVAIISFDGSKKYYANSVKGRSTISRDNSKNTLSLQMNSLGPEDTALYYCAKLPSPYYFDSRFVWVAASAFHFWGQGILVTVSS
VL: NFMLTQPPSASGTPGQRVTISCSGSSSNIGGNTVHWFQQLPGTAPKLLIYTNSLRPSGVPDRFSGSKSGTSASLAISGLQSEDEADYYCAAWDDSLNGQVFGGGTKLTVL
In the case of B1, the binding result was “binds”.

B2: 3I14^D93N Fab (Fab, V domains shown)
VH: QVQLLESGGGVVQPGRSLRLSCAASGFTFSNYGMHWVRQAPGKGLEWVAIISFDGSKKYYANSVKGRSTISRDNSKNTLSLQMNSLGPEDTALYYCAKLPSPYYFDSRFVWVAASAFHFWGQGILVTVSS
VL: LTQPPSASGTPGQRVTISCSGSSSNIGGNTVHWFQQLPGTAPKLLIYTNSLRPSGVPDRFSGSKSGTSASLAISGLQSEDEADYYCAAWDNSLNGQVFGGGTKLTVL
As for B2, the binding result is listed as “binds”.

These data come from paper PMC7835374 (Nature Communications, 2021).
